{
  "source": "patent US20170281796A1",
  "about": "“c-Met Antibody Drug Conjugate” (Sorrento Therapeutics, Inc., priority 2014, published 2017)",
  "system": "MDA-MB468",
  "test": "internalization of anti c-Met antibody in triple negative breast cancer cell line",
  "type": "cell-based",
  "details": "1 μg/ml antibody, 180 min at 37° C.; FIG. 8",
  "procedure": "Internalization of anti c-Met antibody IgG1 H8-A2 (also called STI-0602 SEQ ID NO. 25/SEQ ID NO. 26) in MDA-MB468. MDA-MB468 were plated overnight and incubated with 1 μg/ml anti-C-Met H8A2 antibody for 180 min at 37° C. Cells were stained with anti-AF488.",
  "data": [
    {"molecule": "H8-A2: anti c-Met antibody IgG1, heavy chain SEQ ID NO. 25 / light chain SEQ ID NO. 26 (antibody, V domains shown, Homo sapians) VH: EVQLVQSGAEVKKPGASVKVSCKASGYTFYSEYMHWVRQAPGQGLEWMGWINPNSGNTGVAPKFQGRVTMTRNTSISTAYMELSSLRSEDTAVYYCARRGTTVSFDTWGQGTLVTVSS VL: QLVLTQSPSVSVAPGQRVTISCSGSNSNIGNNYVSWYHHLPGTAPKLLIYDNNKRPSGIPDRFSGSKSGTSATLGITGLQPGDEAHYYCGTWDSTLSAWAFGGGTKLTVL", "values": [
      {"measurement": "internalization", "result": "internalized"}
    ]}
  ]
}
